{"source": "the DeepSol protein solubility set"}
{"assay": "soluble on expression in E. coli; label from the status in PepcDB or PDB records"}
{"sequence": "MSLAQTSDWDSVVAQAKKEGSVTFNVWYLQPQWRSFVKDFEQKYDIKVRIPEGSIDGNMNKLLAETRREQGKIDVIALSIAQLPITMGAKSLAKVDDLPGYQDAYHQLQNVDTQGYAVAFWGNQTGFAYDPQQMGDRPLPQTMEELQRFIDANPKRFGYNDPNNGGAGEAFIQRIVTTLSGDFSSESDTVDPTVIKDWQKGWQWFASNNNNITRTASGADSLTRLNDGELMLTPAWEDHLSGLQKTGAITSRLKFYVPEFGMPGGGNIASIAANSPHPAASRVFLNWLIQADTQKALNEAFGSTPMNKQLNADVKQPDTPVQFYGKAYSMQMKKEFARQVMTREGHHHHHH", "soluble on expression in E. coli": "soluble"}
{"sequence": "MSLARMSRRSRGAAGAQSVVKPETPMAQVLHQFNYCPCQYLEQNWIVPKQPWLLNLDGWRDNPNFNLWCLEEWALAPVPETAFNKPHHSLALLPPDALSTLMLTIGGALHSFAMRQVVLKKPKQCLNNVFGLDIARFLIQQGPMLLSQWPKGWQKALPDVMKEDEVERHMLKQGYAWMKFILASSSHDILLRWQFKLDQSLSQVKENTSWLVEEQRDLAYRLTKKIAKQVIPQWFHLLKEGHHHHHH", "soluble on expression in E. coli": "not soluble"}
{"sequence": "MSLARNVPEFGMESYRIEVGRMHGVKPANIVGAIANEAGLESRYIGRIDIRDDHSVLDLPAEMPHEILQHLKKVWVSGQQLQMRRIDTTETEGHHHHHH", "soluble on expression in E. coli": "soluble"}
{"sequence": "MSLARQNYHSEVEAAVNKQINIELYASYVYLSMSFYFDRDDVALPNIAKFFKEQSDEEREHATELMRVQNLRGGRVVLQDIQKPENDEWGTALKAFEAALALEKFNNESLLKLHSTAGNHNDAHLTDFIEEKYLDEQVKSINEFARMVANLKRVGPGVGEYVFDKEHFSD", "soluble on expression in E. coli": "soluble"}
{"sequence": "MSLASATDSRYGQKESSDQNFDYMFKILIIGNSSVGKTSFLFRYADDSFTPAFVSTVGIDFKVKTIYRNDKRIKLQIWDTAGQERYRTITTAYYRGAMGFILMYDITNEESFNAVQDWSTQIKTYSWDNAQVLLVGNKCDMEDERVVSSERGRQLADHLGFEFFEASAKDNINVKQTFERLVDVICEKMSESLDTADPAVTGAKQGPQLSDQQVPPHQDCACEGHHHHHH", "soluble on expression in E. coli": "soluble"}
{"sequence": "MSLASDPFEAPIPGLHACIDPIAVAHNLEVLRQRLGVGVDGPRIWATVKADAYGHGLHNVLPGLRAADGIAVRHLHEAHQCRRVGWSGPIMVYAGLTHEREAALLTLQQLHLVITDMTQLEWLPGKPLYSCAPWIWLRYIGATRLGGLDASEYRRAYARCRELQQHGALRGVGHLNHYANAASVGDLEREHADFEACIRGLPGPVSTCNSAAACVLPTMAARTDWVRPGLALYGVSPIPGREGHHHHHH", "soluble on expression in E. coli": "not soluble"}
{"sequence": "MSLASLSLAPVNIFKAGADEERAETARLTSFIGAIAIGDLVKSTLGPKGMDKILLSSGRDASLMVTNDGATILKNIGVDNPAAKVLVDMSRVQDDEVGDGTTSVTVLAAELLREAESLIAKKIHPQTIIAGWREATKAAREALLSSAVDHGSDEVKFRQDLMNIAGTTLSSKLLTHHKDHFTKLAVEAVLRLKGSGNLEAIHIIKKLGGSLADSYLDEGFLLDKKIGVNQPKRIENAKILIANTGMDTDKIKIFGSRVRVDSTAKVAEIEHAEKEKMKEKVERILKHGINCFINRQLIYNYPEQLFGAAGVMAIEHADFAGVERLALVTGGEIASTFDHPELVKLGSCKLIEEVMIGEDKLIHFSGVALGEACTIVLRGATQQILDEAERSLHDALCVLAQTVKDSRTVYGGGCSEMLMAHAVTQLANRTPGKEAVAMESYAKALRMLPTIIADNAGYDSADLVAQLRAAHSEGNTTAGLDMREGTIGDMAILGITESFQVKRQVLLSAAEAAEVILRVDNIIKAAPRKRVPDHHEGHHHHHH", "soluble on expression in E. coli": "not soluble"}
{"sequence": "MSLASRRSKLIAVVVPQINNNMFVDTIQSLSDELARRGYHILLCVAGYTEQTEAELVATLLSRRPDGVVLTGIHHTIELKKVILNAAIPVVEIWDLTPTPLDMLVGFSHEKVGQATGEYLLSKGYRRPGLLWTADRRAAQRKQGLCSVLQRHAIHAVPQVDVPLPASLSLGRSGLSQLFDEGTFDVIVCSSDTLAQGAMMEAESRGLRIPHDLAVIGFGDLDFAASNRPSITTVSVDRRAIGQRAATLLADRIEQKPCAEAIVDIGFHLIGRESAEGHHHHHH", "soluble on expression in E. coli": "not soluble"}
{"sequence": "MSLASTVVIKEGSGSGAVAACTVPQVLEQIAQSFPESIAAISERGRITFAELEFRSNQLARLLVKRGVKVGAIVVLMTGRSIDTLIGMTAILKAGGVYMPLDVGLGPEAISGAIQDAQPALVLTEHQPALIDAIEQRRLSDELDASRLEPGDPLALELTPSLPAYVMFTSGSTGRPKGVVVPHRAIVRLVVDTDFMTLSPATVMLHAAPLAFDASTLEIWGPLLNGGQIVIVEDAVLSVDRIAETLGRFSVNAAWLTAGLFHLMVDERPEALSGLTTLLAGGDVLSPAHVRRAMALLPDCTIVNGYGPTENTTFTCCYSIPRTGWGDGPVPIGFPISGTSVHILSDTLEPVADGEEGQLCAGGIGLALGYLNRPELTAEKFIVDPLSDDPAARLYLTGDYVRRRSDGAIEFRGRRDRQVKINGVRIELDGVEQALRQDPVLADAAVVLSADRGDAKRIVAFLKPLPGDAAGDLEAGVIRRLKEQFPAQAIPSTIKVVDELPLNKNGKIDRAKLLSDLIATEQLGAGTDEEDFSDDSVGSIVADIWSALLGKSVDARANLFDLGATSLQMIAAHERIQAAIGIRFPVTDLFAHPSIAEFQACLDGASHRSLAIAGAAREGHHHHHH", "soluble on expression in E. coli": "soluble"}
{"sequence": "MSLATFEKQKIEQAIGSIQGALGVLEKGQMTEIMPPKRIQALPIQQNVDTPEAINAFASMITEYSEMTKISDGPAVKMEEAEDGFILSIPSELLFESGSATITNKEGILFLKRTALEINKLSNDMHIKVIGHTDNDRLRPTATYKDNWELSIARGVNVAKMLLEERVNPARISAGGNGEFDPVASNATPEGKAKNRRVDLYFFSVSKNEEEIKKSQKNSEGHHHHHH", "soluble on expression in E. coli": "soluble"}
{"sequence": "MSLATLDVNPELYQAQLADKIARLKAMFVDYSMPELEVFESPVANYRMRAEFRIWHEGDDMYYIMFNQETREKYRVDQFPAASRLINDLMPLLMDAMKGSPILRHKLFQVDFLSTLSGEILVSLLYHRQLSEEWITAAQALKQRLNDEGFNLNLIGRARKMKVVLDRDYVVENLQVNGQPYVYKQVENSFTQPNAKVAEKMLEWAVDCTQESKGDLLELYCGNGNFSLALAQNFERVLATELAKPSVEAAQFNIAANQIGNVQIIRMSAEEFTQAMEGKREFNRLKDAGVDLQSYRCNTIFVDPPRSGMDIDTCKMVQGYERILYISCNPETLQENLQVLGETHQVVRFALFDQFPYTHHMEAGVMLERKKEGHHHHHH", "soluble on expression in E. coli": "soluble"}
{"sequence": "MSLATPSFGNSSPQLTFTHVANFMNDAAADVSAVDAKQLAQIRQFLKANKTNLIESLNTIRQNVTSSGDHNKLRSTIANLLQINVDNDPFFAQSEDLSHAVEFFMSERSSRLHIVYSLLVNPDIDLETYSFIDNDRFNVVGKLISIISSVIQNYDIITASSLAHDYNNDQDMFTIVSLVQLKKFSDLKFILQILQILNLMILNTKVPVDIVNQWFLQYQNQFVEFCRNINSTDKSIDTSSLQLYKFQNFQDLSYLSETLISRISSLFTITTILILGLNTSIAQFDIQSPLYMDTETFDTVNSALENDVATNIVNEDPIFHPMIHYSWSFILYYRRALQSSESFDDSDITKFALFAESHDVLQKLNTLSEILSFDPVYTTVITVFLEFSLNFIPITASTSRVFAKIISKAPEQFIENFLTNDTFEKKLSIIKAKLPLLNEEGHHHHHH", "soluble on expression in E. coli": "soluble"}
{"sequence": "MSLAVLPDVPKSKDMKHRPRFLPSIGPMKKRVAFFSGCLMDTMFLPTNNATLKLLQLAGCDIVIPPEQACCGALHGHSGEKNTGKELAKQNIAAFEALDVDAVITNAGGCGAFLTEYDHLLKDDPEWSERAAAFVQKLKDFSSVLVELDFHQMDLALETPQVVTYQDSCHLRNVMHTSLEPRQLLKSIKGAEFKEMEKADSCCGSAGIYNIVEVEMSMKILDSKMAAVKATEAILIVTANPGCLLQMKLGIEREGLSGKVRAVHLADLLLEAAGHKTSEGHHHHHH", "soluble on expression in E. coli": "soluble"}
